The text below walks through data of article PMC5980108, “ARE-mediated decay controls gene expression and cellular metabolism upon oxygen variations”.

The series concerns the target T1, dTIS11-6His (UniProt P47980 1-436).
T1 sequence: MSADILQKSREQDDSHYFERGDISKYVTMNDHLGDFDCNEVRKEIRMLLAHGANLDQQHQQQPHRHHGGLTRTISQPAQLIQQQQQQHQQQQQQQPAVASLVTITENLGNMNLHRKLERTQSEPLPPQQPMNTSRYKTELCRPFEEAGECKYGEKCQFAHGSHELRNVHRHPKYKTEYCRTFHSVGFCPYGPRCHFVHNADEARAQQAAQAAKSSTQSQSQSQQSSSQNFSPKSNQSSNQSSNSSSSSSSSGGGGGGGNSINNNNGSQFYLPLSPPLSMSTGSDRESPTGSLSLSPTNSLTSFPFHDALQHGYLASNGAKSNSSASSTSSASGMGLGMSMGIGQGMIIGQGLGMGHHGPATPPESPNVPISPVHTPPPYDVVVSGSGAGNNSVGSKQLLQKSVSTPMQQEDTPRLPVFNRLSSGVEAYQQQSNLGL
Nature of the series: ITC; 5 uM ZnCl2; ITC: 20 mM MES pH 6.5, 300 mM NaCl, 5 uM ZnCl2, 0.5 mM DTT, 10 C; EMSA: 20 mM Tris pH 7.8, 3 mM MgCl2, 40 mM KCl, 2 mM DTT, 5% glycerol, gel at 4 C. The settings on record: protein: recombinant; tags: C-terminal 6His.

AUUCUAUUGUUUCUUCUUAUAUAUUGUUAUUCUUCACAUAAUGUU (ssRNA) [Scrambled ImpL3 ARE (ITC)]: the binding result is recorded as “no binding”. Broadly, the Kd is the concentration at which binding is half-saturated. With CGAUUUAUUUAUUUAGA (ssRNA) [TNF ARE], the Kd was 895 nM. With GAUUAUUUAUAAUUAUUUAUUUAAAGAUCUAUUUAUUC (ssRNA) [CecA1 ARE], the Kd was 580 nM. Turning to UGUUUAUUUUUAGUCCACCUCUCAAUUUAUUUAUUAUUUUUAUGA (ssRNA) [ImpL3 ARE (ITC)], the Kd was found to be 2400 nM.
